Results published in ChEMBL document CHEMBL3861952, “Donepezil-like multifunctional agents: Design, synthesis, molecular modeling and biological evaluation” (Eur J Med Chem, 2016).

B1: Acetylcholinesterase (Homo sapiens), P22303 (protein)
chain: MRPPQCLLHTPSLASPLLLLLLWLLGGGVGAEGREDAELLVTVRGGRLRGIRLKTPGGPVSAFLGIPFAEPPMGPRRFLPPEPKQPWSGVVDATTFQSVCYQYVDTLYPGFEGTEMWNPNRELSEDCLYLNVWTPYPRPTSPTPVLVWIYGGGFYSGASSLDVYDGRFLVQAERTVLVSMNYRVGAFGFLALPGSREAPGNVGLLDQRLALQWVQENVAAFGGDPTSVTLFGESAGAASVGMHLLSPPSRGLFHRAVLQSGAPNGPWATVGMGEARRRATQLAHLVGCPPGGTGGNDTELVACLRTRPAQVLVNHEWHVLPQESVFRFSFVPVVDGDFLSDTPEALINAGDFHGLQVLVGVVKDEGSYFLVYGAPGFSKDNESLISRAEFLAGVRVGVPQVSDLAAEAVVLHYTDWLHPEDPARLREALSDVVGDHNVVCPVAQLAGRLAAQGARVYAYVFEHRASTLSWPLWMGVPHGYEIEFIFGIPLDPSRNYTAEEKIFAQRLMRYWANFARTGDPNEPRDPKAPQWPPYTAGAQQYVSLDLRPLEVRRGLRAQACAFWNRFLPKLLSATDTLDEAERQWKAEFHRWSSYMVHWKNQFDHYSKQDRCSDL
B2: Cholinesterase (Homo sapiens), P06276 (protein)
chain: MHSKVTIICIRFLFWFLLLCMLIGKSHTEDDIIIATKNGKVRGMNLTVFGGTVTAFLGIPYAQPPLGRLRFKKPQSLTKWSDIWNATKYANSCCQNIDQSFPGFHGSEMWNPNTDLSEDCLYLNVWIPAPKPKNATVLIWIYGGGFQTGTSSLHVYDGKFLARVERVIVVSMNYRVGALGFLALPGNPEAPGNMGLFDQQLALQWVQKNIAAFGGNPKSVTLFGESAGAASVSLHLLSPGSHSLFTRAILQSGSFNAPWAVTSLYEARNRTLNLAKLTGCSRENETEIIKCLRNKDPQEILLNEAFVVPYGTPLSVNFGPTVDGDFLTDMPDILLELGQFKKTQILVGVNKDEGTAFLVYGAPGFSKDNNSIITRKEFQEGLKIFFPGVSEFGKESILFHYTDWVDDQRPENYREALGDVVGDYNFICPALEFTKKFSEWGNNAFFYYFEHRSSKLPWPEWMGVMHGYEIEFVFGLPLERRDNYTKAEEILSRSIVKRWANFAKYGNPNETQNNSTSWPVFKSTEQKYLTLNTESTRIMTKLRAQQCRFWTSFFPKVLEMTGNIDEAEWEWKAGFHRWNNYMMDWKNQFNDYTSKKESCVGL

What was measured:
[1] = substrate: C#CCN(Cc1ccc2cccc(O)c2n1)C(C#N)CCC1CCN(Cc2ccccc2)CC1; details: Homo sapiens; HEK293; 20 nM
[2] = substrate: C#CCN(Cc1ccc2cccc(O)c2n1)C(C#N)CCC1CCN(Cc2ccccc2)CC1; details: Homo sapiens; HEK293; 200 nM
[3] = substrate: C#CCN(Cc1ccc2cccc(O)c2n1)C(C#N)CCC1CCN(Cc2ccccc2)CC1; details: Homo sapiens; HEK293; 50 nM
Description: Inhibition of human recombinant AChE expressed in HEK293 cells using acetylthiocholine iodide as substrate assessed as enzyme Vmax at 50 nM preincubated for 30 mins followed by substrate addition measured after 30 mins by Lineweaver-Burk plot analysis

[4] = substrate: C#CCN(Cc1ccc2cccc(O)c2n1)C(C#N)CCC1CCN(Cc2ccccc2)CC1; details: Homo sapiens; HEK293; 100 nM
[5] = substrate: C#CCN(Cc1ccc2cccc(O)c2n1)C(C#N)CCC1CCN(Cc2ccccc2)CC1; details: Homo sapiens; HEK293; 200 nM; remark: listed apart in the source
[6] = substrate: C#CCN(Cc1ccc2cccc(O)c2n1)C(C#N)CCC1CCN(Cc2ccccc2)CC1; details: Homo sapiens; HEK293; 100 nM; remark: listed apart in the source
[7] = substrate: C#CCN(Cc1ccc2cccc(O)c2n1)C(C#N)CCC1CCN(Cc2ccccc2)CC1; details: Homo sapiens; HEK293; 50 nM; remark: listed apart in the source
Description: Inhibition of human recombinant AChE expressed in HEK293 cells using acetylthiocholine iodide as substrate assessed as enzyme Km at 50 nM preincubated for 30 mins followed by substrate addition measured after 30 mins by Lineweaver-Burk plot analysis

[8] = substrate: C#CCN(Cc1ccc2cccc(O)c2n1)C(C#N)CCC1CCN(Cc2ccccc2)CC1; details: Homo sapiens; HEK293; 20 nM; remark: listed apart in the source
[9] = substrate: C#CCN(Cc1ccc2cccc(O)c2n1)C(C#N)CCC1CCN(Cc2ccccc2)CC1; details: Homo sapiens; HEK293; 50 nM; remark: listed apart in the source
Description: Inhibition of human recombinant BuChE expressed in HEK293 cells using S-butyrylthiocholine iodide as substrate assessed as enzyme Vmax at 50 nM preincubated for 30 mins followed by substrate addition measured after 30 mins by Lineweaver-Burk plot analysis

[10] = substrate: C#CCN(Cc1ccc2cccc(O)c2n1)C(C#N)CCC1CCN(Cc2ccccc2)CC1; details: Homo sapiens; HEK293; 20 nM; remark: listed apart in the source
[11] = substrate: C#CCN(Cc1ccc2cccc(O)c2n1)C(C#N)CCC1CCN(Cc2ccccc2)CC1; details: Homo sapiens; HEK293; 100 nM; remark: listed apart in the source
[12] = substrate: C#CCN(Cc1ccc2cccc(O)c2n1)C(C#N)CCC1CCN(Cc2ccccc2)CC1; details: Homo sapiens; HEK293; 200 nM; remark: listed apart in the source
[13] = substrate: C#CCN(Cc1ccc2cccc(O)c2n1)C(C#N)CCC1CCN(Cc2ccccc2)CC1; details: Homo sapiens; HEK293; 100 nM; remark: listed apart in the source
[14] = substrate: C#CCN(Cc1ccc2cccc(O)c2n1)C(C#N)CCC1CCN(Cc2ccccc2)CC1; details: Homo sapiens; HEK293; 50 nM; remark: listed apart in the source
Description: Inhibition of human recombinant BuChE expressed in HEK293 cells using S-butyrylthiocholine iodide as substrate assessed as enzyme Km at 50 nM preincubated for 30 mins followed by substrate addition measured after 30 mins by Ellman's method

[15] = substrate: C#CCN(Cc1ccc2cccc(O)c2n1)C(C#N)CCC1CCN(Cc2ccccc2)CC1; details: Homo sapiens; HEK293; 200 nM; remark: listed apart in the source
[16] = substrate: C#CCN(Cc1ccc2cccc(O)c2n1)C(C#N)CCC1CCN(Cc2ccccc2)CC1; details: Homo sapiens; HEK293; 20 nM; remark: listed apart in the source

| Protein | Vmax [1] | Vmax [2] | Vmax [3] | Km [4] | Km [5] | Vmax [6] | Km [7] | Km [8] | Vmax [9] | Vmax [10] | Vmax [11] | Vmax [12] | Km [13] | Km [14] | Km [15] | Km [16] |
| --- | --- | --- | --- | --- | --- | --- | --- | --- | --- | --- | --- | --- | --- | --- | --- | --- |
| B1 | 17.7 mAU/min | 7.3 mAU/min | 13 mAU/min | 955 µM | 936 µM | 10.2 mAU/min | 622 µM | 368 µM |  |  |  |  |  |  |  |  |
| B2 |  |  |  |  |  |  |  |  | 101 mAU/min | 108 mAU/min | 87 mAU/min | 83 mAU/min | 456 µM | 289 µM | 1240 µM | 249 µM |
